In experiment [1] the target is T1, bone morphogenetic protein 7 (BMP7), human (human), P18075.
T1 chain: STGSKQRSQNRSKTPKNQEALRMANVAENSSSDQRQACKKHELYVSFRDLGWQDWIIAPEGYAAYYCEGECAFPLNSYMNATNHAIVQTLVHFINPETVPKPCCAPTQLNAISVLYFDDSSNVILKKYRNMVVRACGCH
The experiment is described as follows: SPR; Biacore 2000; receptor ectodomains as analyte over biotinylated ligands on streptavidin-coated CM5 chips; HBS500, 25°C, 10 μl/min; apparent affinities, 1:1 interaction. As to conditions: remark: other sources report otherwise.

The target in experiment [2] is activin A, human (human) (UniProt P08476). Described as above.
The target of experiment [3] is preformed complex of BMP2 with immobilized BMPR-IA ectodomain (human) (UniProt P12643). The experiment is described as follows: SPR; ternary complexes by coinjection: 100 nM ligand perfused 2 min over the immobilized type I receptor ectodomain, then 100 nM ligand plus 0 to 64 μM soluble type II receptor ectodomain; HBS500, 25°C; equilibrium dose response.
Experiment [4] addresses preformed complex of BMP7 with immobilized BMPR-IB ectodomain (human | mouse) (UniProt P18075). The description is as above.
The target of experiment [5] is preformed complex of GDF5 with an immobilized type I receptor ectodomain (BMPR-IA or BMPR-IB) (UniProt P43026). The experiment is described as above.
Experiment [6] has as its target T2, activin receptor type I (ActR-I) ectodomain, human (human), Q04771.
T2 chain: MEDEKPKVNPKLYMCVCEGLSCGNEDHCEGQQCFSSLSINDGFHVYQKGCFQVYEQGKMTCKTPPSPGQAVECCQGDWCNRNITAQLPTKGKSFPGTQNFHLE
The experiment is described as follows: SPR; Biacore 2000; ligands as analyte over biotinylated receptor ectodomains (about 200 RU) on streptavidin-coated CM5 chips; HBS500 (10 mM HEPES pH 7.4, 500 mM NaCl, 3.4 mM EDTA, 0.005% P20), 25°C, 10 μl/min; apparent affinities, 1:2 interaction with avidity. As to conditions: remark: other sources report otherwise.

B1: activin receptor type I (ActR-I) ectodomain, human, Q04771 21-123 (receptor)
chain: MEDEKPKVNPKLYMCVCEGLSCGNEDHCEGQQCFSSLSINDGFHVYQKGCFQVYEQGKMTCKTPPSPGQAVECCQGDWCNRNITAQLPTKGKSFPGTQNFHLE
modifications: here or on the partner: N-biotinylated (sulfo-NHS-LC-biotin) where immobilised; biotin (sulfo-NHS-LC-biotin) where immobilised
Consider B1, for which the Kd in experiment [1] was determined as 58 µM.

B2: BMP receptor II (BMPR-II) ectodomain, human (receptor)
chain: RLCAFKDPYQQDLGIGESRISHENGTILCSKGSTCYGLWEKSKGDINLVKQGCWSHIGDPQECHYEECVVTTTPPSIQNGTYRFCCCSTDLCNVNFTENFPPPDTTPLSPPHSFNRDET
modifications: N-biotinylated (sulfo-NHS-LC-biotin) where immobilised
As to B2, the Kd in experiment [2] was found to be 0.89 µM; in experiment [3], 22 µM; in experiment [4], 16 µM; in experiment [5], 32 µM. For the same molecule, the koff in experiment [2] stood at 0.076 s⁻¹. The association rate constant (kon) in experiment [2] stood at 100000 M⁻¹ s⁻¹.

B3: bone morphogenetic protein 7 (BMP7), human, P18075 293-431 (ligand)
chain: STGSKQRSQNRSKTPKNQEALRMANVAENSSSDQRQACKKHELYVSFRDLGWQDWIIAPEGYAAYYCEGECAFPLNSYMNATNHAIVQTLVHFINPETVPKPCCAPTQLNAISVLYFDDSSNVILKKYRNMVVRACGCH
modifications: here or on the partner: biotin (sulfo-NHS-LC-biotin) where immobilised; N-biotinylated (sulfo-NHS-LC-biotin) where immobilised
With B3, in experiment [6], the KD (eq) is above 0.5 µM and the Kd is above 0.5 µM.
